How the values were obtained:
IFP1.4 = IFP1.4 (UniProt Q9RZA4); assay: AUC
IFP2.0 = IFP2.0 (UniProt Q9RZA4); assay: AUC

| Substance | Kd (IFP1.4) [µM] | stoichiometry N (IFP1.4) | Kd (IFP2.0) [µM] | stoichiometry N (IFP2.0) |
| --- | --- | --- | --- | --- |
| IFP1.4 (from UniProt Q9RZA4 1-321) | 7.8 | 2 | – | – |
| IFP2.0 (from UniProt Q9RZA4 1-321) | – | – | 3.7 | 2 |
